Data reported in the nanobody polyreactivity screen of Harvey et al. (2022).

Test: yeast display, Sf9 membrane polyspecificity reagent, FACS + sequencing; frameworks hold sequencing errors
Outline: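 Galactose-induced (36–48 hours) yeast carrying a synthetic nanobody display library were exposed to 10% biotinylated, detergent-solubilized Sf9 membrane reagent at 4 °C for 1 hour. FACS followed streptavidin microbead enrichment, using low and high (top ~1%) gates for expression (anti-HA) and reagent binding (streptavidin). Colony PCR, MiSeq 2 × 250 sequencing and CDR-length filtering followed. Labels for polyreactivity reflect the gate of origin.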

Sequence	polyreactivity (PSR sort gate)
QVQLVESGGGLVQAGGSLRLSCAPSGSTFYRYSMGWYRHAPGKERELVAAINGGDITNYADSVKGRFTISRDNAKNTVYLQMNSLKPEDTAVYYCAARYTYWGLLRYDYWGQGTQVTVSS	high polyreactivity
QVQLVESGGGLVQAGGSLRLSCAASGSIFSYYAMGWYRQAPGKERELVATISWSGGSTYYADSVKGRFTISRDNAKNTVYLQMNSLKPEDTAVYYCAARKYGQRYRRDYWGQGTQVTVSS	low polyreactivity
QVQLVESGGGLVQAGGSLRLSCAASGFTFGRYTMGCYRQEPGKERELVAAISKSGSGTFYADSVKGRFTISRDNAKNTVYLQINSLKPEDTAVYYCAARYRHFGNQVRTSHSIMYYWGQGTQVTVSS	high polyreactivity
QVQLVESGGGLVQAGGSLRLSCAASGSIFDGYALGWYRQAPGKEREFVAAIDTGDTRTYYADSVKGRFTISRDNAKNTVYLQMNSLKPEDTAVYYCNADDWAYGMDYWGQGTQVTVSS	low polyreactivity
QVQLVESGGCLVQAGGSLRLSCAASGRIFTYYGMGWYRQAPGKERELVAAITRSGGSTRYADSVKGRFTISRDNSKNTVYLQMNSLKPEDTAVYYCNAGGYWRYDYWGQGTQVTVSS	low polyreactivity
QVQLVESGGGLVQAGGSLLLSCAASVRIFQGYAMGWYRQEPGKERELVAAISSGGRTYYADSVKGRFTISRDNAKNTVYLQMNSLKPEDTAVYYCAARSPKAHGLQRFDYWGQGTQVTVSS	high polyreactivity
QVQLVESGGGLVQAGGSLRLSCSASGRTFYGNAMGWYRQAPGKERELVAAISWSGGSTYYADSVKGRFPISRDNAKNTVYLQMISLKPEYTAVYYCNADYFAWDLMYYWGQGTQVTVSS	low polyreactivity
QVQLVESGGGLVQAGGSLRLSCAASGSTFIHNAMGWYRQAPGKERELVAAITSGGSTYYADSVKGRFTISRDNAKNTVYLQMTSLKPEDTAVYYCNAGRGTRFVYIDGMDYWGQGTQVTVSS	high polyreactivity
QVQLVESGGGLVQAGGSLRLSCAASGIIFGGYAMGWYRQAPGKERELVADISGISSNTYYADSVKGRFTISRDNAKNTVYLQMNSLKPEDTAVYYCAADLTAWWAPVIFYYWGQGTQVTVSS	high polyreactivity
QVQLVESGGGLVKAGGSLRLSSAASGYNTNTYAMGWYRQAPGKERELVAAISGSGGSTYYADSVKGRFTMSRDNAKTTVYLQMNSLKPEDTAVYYCNVVVRYPSAYDYWGQGTQVTVSS	high polyreactivity
QVQLVESGGGLVQAGGSLRLSCAASGRIFTFYAMGWYRQAPGKERELVAAISSGGSTYYADSVKGRFTISRDNAKNTVFLQMNILKPEDTAVYYCAAVPVWYADYDYWGQGTQVTVSS	low polyreactivity
QVQLVESGGGLVQAGGSLRLSCAASGRTFRRYVMGWYRQAPGKERELVAAIRWTGGSTYYADSVKGRFTISRDIAKNTVYLQMNSLKPEDTAVYYWAASSYICYGYWGQGTQVTVSS	high polyreactivity
QVQLVESGGGLVQAGGSLRLSCAASGFIFGLYAMGWYRQAPGKERELVAAITWRGSTYYADSVKGRFTISRDNAKNTVYLQMNSLKPEDTAVYYCNDVRSAYILSNDYWGQGTQVTVSS	high polyreactivity
QVQLVESGGGLVQAGGSLRLSCAASGIIFGKYAMGWYRQAPGKERELVAAINYSGSTYYADSVKGRFTISRDNAKNTVYLQMNSLKPEDTAVYYCAAVLGLDTRYDYWGQGTQVTVSS	high polyreactivity
QVQLVESGGGLVQAGGSLRLSCAASGSIFGGYAMGWYRQAPGKERELVARIRVSGGRTYYADSVKGRFTISRDNAKNTVYLQMISLKPEDTAVYYCAVDRYWWLDGYDYWGQGTQVTVSS	high polyreactivity
QVQLVESGGGLVQAGGSLRLSCAASGSIFYGNAMGWYRQAPGKERELVAAISYRGVRTYYADSVKGRFTISRDNAKNTVYLQMNSLKPEDTAVYYCAATQGYRREYDYWGQGTQVTVSS	high polyreactivity
QVQLVESGGGLVQAGGSLRLSCAASGRIFLGNAMGWYRQAPGNERELVADITTDGSTYYADSVKGRFTISRDNAKNTVYLQMNSLKPEVTAVYYCAAGEHPSFRSSYKYDYWGQGTQVTVSS	low polyreactivity
QVQLVESGGGLVQAGGSLRLSCAASGIIFRYYAMGWYRQAPGKERELVARITSRAGRTYYADSVKGRFTISRDYAKYTVYLQMNSLKPEDTAVYYCAARLYGRYGYWGQGTQVTVSS	high polyreactivity
QVQLVESGGGLVQAGGTLRLSCAASGYTLKWYTMGWYRQAPGKERELVATIRRGGGTYYADSVKGRFTISRDNAKNTVYLQMNSLKPVDTPVYYCAAEWSSVYNYDYWGQGTQVTVSS	low polyreactivity
QVQLVESGGGLVQAGGSLRLSFAASGFTFKYYAMGWYRPAPGKERELVAAIRSGGSTYYADSVKGRFTISRDNAKNTVYLQMNSLKPEDTAVYYCNAPAFYRYGLNYWGQGTQVTVSS	high polyreactivity
QLQLVESGGGLVQAGGSLRLSCAASGRTFIHYAMGWYRQAPGKERELVAAISDDASSTYYADSVKGRFTISRDNAKNTVYLQMNSLKPEDTAVYYCNVELAKVGGVEYDYWGQGTLVTVSS	low polyreactivity
QVQLVESAAGLVQAGGSLRLSCAASGRTFQYNAIGWYRQAPGKETELVAAISSSGGSTYYADSVKGRFTISRDNAKNTVYLQLNSLKPEDTAVYYCNAYSQSWNFYGDGDYWGQGTQVTVSS	low polyreactivity
QVQLVESGGGLVQAGGSLRLSCAASGSIFDTNAMRWYRQAPGKERELVAAISFSGVRTYYEDSVKGRFTISRYNAKNTVSLQMYSLKPEDTAVYYCAAESGKYLESRYRYYTRYYYWGQGTEVTVSS	high polyreactivity
QVQLVESGGGLVQAGGSLRLSCAASGSILGTYAMGWYRPAPGKESELVAAISSSGRTSYADTVKGRFTNSRDNAKNTVYLQMKSLKPEDTAVYYCNASNYIVLINDPDAAPWVYDYWGPGTQVTVSS	low polyreactivity
QVQLVESGGGLVQAGGSLRLSCAASGLTFGGYAMGWYRQAPGKERELVAAISRSGGSTYYADSVKGRFTISRDNAKNTVYLQMNSLKPEDTAVYYCAAVLSVRVYGYDYWGQGTQVTVSS	low polyreactivity
QDQLVESGGGLVQAGGSLRLSCAASGRTFYRYTMGWYRQAPGKESELVAGISWRGGTTYYADSVKGRFTISRDNAKNTVYLQMNSLKPEDTAVYYCAAKAGYRYGSLAYYKYDYWGQGTQVTVSS	high polyreactivity
QVQLVESAGGLVQAGGSHRLSCAASGNIFYYYRMGWYRQEPGKESEFVAAISTSGGNTYYADSVKGRFTISRDNAKNTVYLQINSLKPEDTAVYYCAADDWPWGDAGVDYWGQGTQVTVSS	low polyreactivity
QVQLQESGGGLVQAGGSLCLSCAASGTIIFDGDMGWYRQAPGKEREFVAAINPGGSAYYADSVKGRLPLAAITHTVYLQMNCLKPEDTAVYYCAAKLFDVYGYYYWGQGTHVTVSS	low polyreactivity
QVQLVESGGGLVQAGGSLRLSCAASGNIFTNNAMGWYRQAPGKEREFVAAITRSGGSTSYADSVKGRFTISRDNAKNTVYLQMISLNPEDTAVYYCAATGYRYRRIYGFDYWGQGTQVTVSS	high polyreactivity
QVQLVESGGCLVQAGGSLRLSCAASGRSLTDYAMGWYRKAPGKERELVAAISRSGGSTYYADSVKGRFTISRDHAKNTVYLQMNSLKTEDTAVYYCAAGTPKRVGGGYWGQCTQVTVSS	high polyreactivity
